From patent US20160068834A1 (Dana-Farber, published 2016)
Bridges are numbered along the chain shown (N, C = ends). Where no end group is shown, it is not given here. [ ]: non-standard residue; d: D form. The star is where a group is joined. FITC = O=C1OC2(c3ccc(O)cc3Oc3cc(O)ccc32)c2ccc(NC(=S)*)cc21; S5 = C=CCCC[C@](C)(N)C(=O)O

Columns and labels:
purified EED (Example 6) = purified EED (Example 6) (UniProt O75530 1-441, limits assumed); experiment: competitive fluorescence polarization: EED 200 nM, FITC-EZH2(42-68) 20 nM as competitor, 30 min
Sequence of purified EED (Example 6) (O75530 whole entry): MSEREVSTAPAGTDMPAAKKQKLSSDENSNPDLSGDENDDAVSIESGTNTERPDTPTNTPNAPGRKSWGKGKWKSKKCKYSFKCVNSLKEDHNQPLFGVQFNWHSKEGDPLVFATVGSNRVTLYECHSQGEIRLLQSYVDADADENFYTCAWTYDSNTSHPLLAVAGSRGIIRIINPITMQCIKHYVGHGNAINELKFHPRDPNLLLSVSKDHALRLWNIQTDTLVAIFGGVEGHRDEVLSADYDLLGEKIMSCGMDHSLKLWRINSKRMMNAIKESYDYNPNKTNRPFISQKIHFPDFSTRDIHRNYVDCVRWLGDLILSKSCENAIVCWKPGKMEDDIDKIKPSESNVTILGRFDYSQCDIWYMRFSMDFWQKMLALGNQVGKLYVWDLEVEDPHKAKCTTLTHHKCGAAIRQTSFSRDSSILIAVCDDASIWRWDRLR
Procedure: The EED binding affinities of SAH-EZH2 and SAH-EZH2(42-68)AC were assessed by their capacities to displace FITC-labeled EZH2(42-68) peptide from EED. Serially diluted acetyl-SAH-EZH2 and the doubly stapled acetyl-SAH-EZH2(42-68)AC (dose range from 2.5 nM to 10 μIM) were incubated with purified EED (200 nM) and FITC-labeled EZH2(42-68) peptide (20 nM) for 30 min, followed by measurement of fluorescence polarization. N-terminal acetylated SAH-EZH2(42-68)AC displaced FITC-labeled EZH2(42-68) peptide from EED two times more efficiently than SAH-EZH2. The non-binding EZH2(47-64) construct was used as a negative control.

[1] = target: T1, native EED in MLL-AF9 leukemia cells (UniProt Q921E6 2-441, limits assumed); experiment: anti-FITC immunoprecipitation from peptide-treated MLL-AF9 cells, EED western
T1 construct: Endogenous intracellular protein
T1 sequence (Q921E6 2-441 limits assumed): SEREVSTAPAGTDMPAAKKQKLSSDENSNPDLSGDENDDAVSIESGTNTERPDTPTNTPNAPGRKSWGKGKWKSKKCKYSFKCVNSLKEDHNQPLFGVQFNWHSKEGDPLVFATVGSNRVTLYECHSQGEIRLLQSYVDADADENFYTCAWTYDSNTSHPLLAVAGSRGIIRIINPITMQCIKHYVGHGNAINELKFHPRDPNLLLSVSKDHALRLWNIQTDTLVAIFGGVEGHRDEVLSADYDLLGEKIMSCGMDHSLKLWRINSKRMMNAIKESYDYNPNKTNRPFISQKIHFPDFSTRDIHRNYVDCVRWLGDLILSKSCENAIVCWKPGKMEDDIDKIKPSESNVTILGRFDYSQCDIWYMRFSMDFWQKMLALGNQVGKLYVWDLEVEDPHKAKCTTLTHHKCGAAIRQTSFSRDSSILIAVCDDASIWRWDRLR
Procedure: To assess the interaction between SAH-EZH2 peptides and native EED, MLL-AF9 leukemia cells (2×10⁷) were cultured in 10 ml AF9 media using 10 cm dishes (BD Biosciences) and FITC-SAH-EZH2 peptides added to final concentration of 20 μM, followed by 8-12 h incubation. Treated cells were washed and trypsinized as above, lysed and then incubated with 50 μl of FITC-antibody (1 mg/ml) and 100 μl of protein G agarose (Roche) for 3 h. The amount of EED bound to FITC-SAH-EZH2 peptides was assessed by anti-EED western analysis (Millipore). To monitor for dissociation of native EED-EZH1/EZH2 complexes by SAH-EZH2, Sf21 cells were co-transfected with HA-EED and FLAG-EZH1 or FLAG-EZH2 baculovirus. EED-EZH1 and EED-EZH2 complexes were purified by anti-FLAG agarose (Sigma). EED-EZH1 and EED-EZH2 complexes (40 nM final concentration) were incubated with FITC-SAH-EZH2 peptides (final concentrations, 10, 3 and 1 μM) in 200 μl binding buffer for 2 h. After successive washes, the mixtures were incubated with anti-HA agarose (Sigma) and the level of HA-EED-bound EZH1 and EZH2 assessed by anti-HA western analysis.

| Binder | fold displacement efficiency against SAH-EZH2 (purified EED (Example 6)) [fold] | binding result [1] |
| --- | --- | --- |
| Ac-FSSNR[S5]KIL[S5]RT[S5]ILN[S5]EWKQRRIQPV (staple 6-10, 13-17, Doubly stapled peptide; also called doubly stapled SAH-EZH2 peptide) [acetyl-SAH-EZH2(42-68)AC] | 2 |  |
| {FITC}-FSSNR[S5]KIL[S5]RTQILNQQWKQRRIQPV (staple 6-10, Negative control peptide; also called SAH-EZH2MUT; SAH-EZH2(42-68)A-E54,59Q) [FITC-SAH-EZH2A(42-68)E54Q/E59Q] |  | no binding (tested: 20 µM peptide on cells) |
